From a protein production outcome set (Wang et al. 2014)

Assay: label from the status in PepcDB records
In the case of “MMTKKDLPLRQLLKLRNSWIAWVVFLVSVVATVLLWQVSIRLVEDRTEARFRTQSLQLKTAIEERLLNYEQVLAGSAGLFAVTGKVTRDQWKEYVDNVDINRYYPGIEGIGYVERIGVREMADHIASVRAEGLYNYLVKPLGTGPYYYPMVYLEPGTERNRKALGYDAFSDPIHRTAMEQARDDAIPTVTGKVVLVQESVAEDQAGFLMYYPVFQGGEIPEIRAERRMMLAGYVFSAFRMNNLIDGIVGLISPFLDVRIYDSGVVARDTLMYGSNLGSLDNEFSFEMSQTIRHGGREWLLQTRSTPAFDYLAADPRPPIVLGSGLAISLLLWLFVLALIRSRLIAQVSAGRYRAITEGAANVTLVMDRRGRPLYASPSSRDILGFDPDKVEALEFEKLVHMDDWSHLQRGFEESMASPGKQMPVVRARVRDADGQWRDMEGTFTAMLSVPGVNGVVLSLRDLTQLKAAQSELHRLAFYDPLTGLANRQLFRDRLNHVVRRSRRSGEAAALMFLDLDGFKRINDTLGHDAGDELLRQVAQWLEGCVREEDSVARLGGDEFVVLLSRISGSEAAGKVAENILRRLCQRIRLNDHEVGVTVSIGITMIPHDSEDAGALMKYADLAMYRAKELGRNTYQFFTPAMNIQAARRLLQQEELATALDGDRFVLHYQPKVDLATQRVIGVEAFLRWHHPEKGLVSAQQFITLAEETGLIIRLGELALRQACIQVQALERAGFESLKMAVNFSVRQLTDSGFLDMIRRVITETGVSPERLELEMPAELLNEDPRMLRELLVSLNDLGVCLILDDFGTGSCSLVALQQLPLDVIKIDHRFIRDIPYNVSATDVASAVIALAHKLHLTVVAEGVETLQQLTFLKSAGCAQCQGNLFSYPLDEDALIGFLIRQYEKPLIS”, the protein production is reported as “failed”. With “MMTLVILLLFLLFCVLVFWISITFSIKYVLIFTAFLFSGLLVYYSFLTIAGLIHRNSKRKDRTLEHYPSVDIFIPAHNEGVVIKDTLEAMAKIEYPGKLTIYLLNDNSQDETPEIGDDFDKAYAHIRHIRVPPGEPKGKSRVLNYGLSISDGEYFCVYDADNQPEPHALRMLVEHAETTEDAVGAVGHVRTVNEKRNWLTRMISLEFQIFQLLMQSGRWLLFQTGSLTGTNMLLRRSALEELGGYDPYAIAEDAELTLRITQKGYLLPIVPESVTWEQEPEHLKILIKQRTRWLQGNLYILEKMFSSLSFFKGKLLVHSLQQVLVYVVFWLFLIISNVWFVIGLLGIFQIQYSIPLLFMWYVAYITYVSQLFSAQSVERTFTPTNIFISVIMYFTYAQLFTYLFIRSLILYLRAKSKKQVIGWDKTVRFKKDK” the protein production was “failed”. With “MMVAVIPAYNEEKNIISVLKDLSDINIDVIVVDDGSTDKTKTIINEFLEKNEFKNKIFPIFKEKNEGKSKALEDGTNYAINLNYDAIAYLDGDYQHKPSDIIPMYEKMKSENADAVFGIRKYKHIPFHRQFSNFLASVIMSITVSVFSGNFHIFRDIQCGFRIIKSEFLKNSYFGDGYSVEHLIALQLAKKNAKITEEYVTIDYHNDAISYITTKKILDVVKEVAKYVLSKH” the protein production was “failed”. With “MMVETATVVQYQNGKALVRCSVKTACGNCGAKADCGTQLLSSLVKERVPHFELSVNMPLVAGDMVKIGLPEQTLLWSIFWIYVVPLMVLIGSAVGFTQLFANELVVVFMMFICTSMTFFSIKKIIDKKQLSQLNPIFLGRVE” the protein production was “failed”. For “MMVPHLTTALTGPLLTLEKRLLDNMPRIEHWFRSQWQEYGAPFYASVDLRNAGFKLAPVDTNLFPGGFNNLNPDFLPLCIQAAMVAVEKICPDARRLLLIPENHTRNTFYLRNVHALTHILRQAGLEVRIGSIAPEITAPTFLETHDGHSILLEPVRRKANRLELDNFDSCAILLNNDLSGGIPDILQGLEQSLIPPLHAGWATRRKSNHFTAYDRVVEEFAPLIDIDPWLLNPYFDTCGGLDFHARLGEEQLAEKVDSLLAKIRRKYAEYGVKQEPFVIVKADAGTYGMGIMTVKSADDVRDLNRKQRNKMSVVKEGLKVSEVILQEGVYTFEHLKDAVAEPVIYMMDHFVVGGFYRVHTSRGADENLNAPGMHFEPLTFETPCSTPDCAGAPDAAPNRFYAYGVVARLALLAATIELQETDPDLLDERT”, the protein production was “not failed”. In the case of “MNAEDFPTPDADVESVTPETLKSRIDDGESVTILDARMSGDYEEWHIDGENVESINVPYFHFLEDELDADIIADVPDDREVTVLCAKGGASEYVAGTLADRGYDVHHLEDGMNGWARIYETVEVTDYDGAGTLLQYQRPSSGCLGYLVYDDGEAAIIDPLRAFADRYFDDADELGVDLKYALDTHIHADHISGVRGLDAAGVEGVIPAAAVDRGVTYAAEQSSASPVSQARQDADDLTTAEDGDTFEVGDVTIETVATPGHTTGMTSYLVDDSLLATGDGLFIESVARPDLEEGDEGAPDAARMLYESLQERVLTLPDDTLIGGAHFSDAAEPANDGTYTAPIGQLVEEMDALTMDEDDFVETILADMPPRPANYEDIIATNLGQNTVDDEEAFTLELGPNNCAASQESLAGD”, the protein production is reported as “failed”. With “MNAMLVGADTLGNIPDVLQNYGITIHRHLSGRNSSHQRKVDRLPAGTDLLILFTDFLGHNVMRHFRELAAEQQIRFIACRRSVCALKQSLTGAGMCEQPCAACPQRSGGDKPVKRKR” the protein production was “failed”. With “MNATAPGTPPNPPQSTGTLMPLVSFRRHRRIALMVMAVVVVFGAGFAWVKGKAVYSATAVLYVAPHFVNILKESKELDIPAYDQFIEHQALTVPRYDILLESLAKLGDRRYVWQKKKESDRRAAERLQAALEVKPVKDSYLITVTLESTTPDHLDELVNTIVDTYLEKSRESDSFFARNVRLTSLRERRGQIQGEIDAKLARRTEIAQELSVTTFSEQLASPYDKLLIESQNALAMAQRNRLASEAALALFEDRKSGQDAIAAAAFDTIQKDPGLISLKGSLYKRRSELLQQASGLDPRHPLKIQIDREFKEIDEELNRTVAKLTEQVAKSFIDQRKADVKRDRQIEQELSLQLESFRQKASWFAALYNEALSLSDEIERSRKQLDMIDERIEFFELESRAPGFVRVETYARPPELPVKGGRKKLFAVVLVLALALGAATPVGLDMLDQRIRTTGQVAKIIGHRPVAWFVEHHGSPDLKRMSADQLRRLAIAVNREREMHGSRLVSLTSVKPEAGVTDLALDLAAELGVLGVPTVVVEADPLRPDPRYRGGSAQPGLADLLAGSGEVTAAVVPAAGGLPARLGTGTAPGRQLFAYPALRRCLDELKAAYDLVLIDAPPLLLSADAEYLVEIADVTLLLVGAGQVKPGELRRAAGILEKIDPKAVGFVVTRLEVYRGGGYYAKLAEEFALAASHENGQKHTSRRLEG” the protein production was “failed”. In the case of “MNDIVEFLKVFIPLFIVIDPFGSLVLFTSMTYNFNEGEKMRATKDAVVYGGIILVMFALAGQFIIYFFGISIEALEMAGGVILLLMAVEMIMEGNRPKTSGSEVTTDLDIGIVPFATPLLAGPGAISLVIILMKGPLIDKIFTFVSIGIIFLMVYIFFKEASIVSKFIGNKAMKAVSRIFGLLLAGFAIQYFIDAVTALFLVH”, the protein production is reported as “failed”. For “MNDIYFDDNRHNWNDRARLHEEAGYGIDKLLSDRDYITPEVEQDKDLIGDLTNKDVLHLQCHLGTDTISLARLGARRVLGLDLSDESLRRARNLAKKAGVSIDFIEGNVYDAREVIVGDFDLIYTSLGVLCWLPDITAWGRVVASLLKSGGKFIIRDDHPMFMTIGEDVRDGFKIEQPYFEQSQPMTWEDEGSYIETDASFEKIKNTRNHQWNHALSEIIMALINAGLQIDLVSESQHAAWNIWPHLMEKCSDGSYRLKKHSEVLPLQFLISAHKPEA”, the protein production was “failed”. For “MNDTLTLDEVVEFAENPEPRCPCVLLLDTSGSMQGAAIEALNQGLLSLKDELMKNSIAARRVEIAIVTFDSHINVIQDFVTADQFNPPILTAQGLTSMGAGIHKALDMVQERKSLYRANGVAYYRPWVFMITDGEPQGELDHLVEQAALRLQGDEVNKRVAFFSVGVENANMTRLNQIAVRTPLKLKGLNFIEMFVWLSASMSAVSHSQIDEQVALPPIGWGSI”, the protein production was “failed”. In the case of “MNDTSNPYATPASALQPTQAVPPVIGDYDFRIGDVISEAWAKIKGVKGILIGAFVVYSVVIQTITFILTLLFGGIGLMSEADPIAFAVGQMIASLVATAVGYPFFTGLTMIGIRRAADQPATFNEMFNYFGMLVPLLLTGLLMMLMVYVGFFLLIIPGLYLSVAYMLALPLVAERGLTPWQALETSRKAISRHWFKVFGLLLVLSLLMLVSMIPLFIGLIWTGPLFVVSMGILYRTIFGVRPLGN”, the protein production is reported as “failed”.
